Data from publication PMC10281804, “The structural basis of the talin–KANK1 interaction that coordinates the actin and microtubule cytoskeletons at focal adhesions” (Open Biology, 2023).

Tests used:
[1] = test system: focal adhesions of NIH3T3 fibroblasts; assay: KANK1 localization to focal adhesions (co-expression with GFP–paxillin); format: cell-based, mouse; conditions: NIH3T3 fibroblasts co-expressing GFP–paxillin
Protocol: (§1) NIH3T3 mouse fibroblasts and HEK293T human epithelial cells were obtained from the American Type Culture Collection (ATCC). The vinculin null and WT mouse embryonic fibroblasts (MEFs) originate from the Eileen Adamson laboratory. All cells were maintained in Dulbecco's Modified Eagle Medium (DMEM; Sigma) supplemented with 10% fetal bovine serum (FBS, Gibco), 1% L-glutamine (Sigma) and 1% non-essential amino acids (Sigma). Talin1&2 null cells were cultured in DMEM F-12 (Gibco) supplemented with 10% FBS, 1% L-glutamine, 1% non-essential amino acids and […] HEPES (Sigma). All cells were cultured at 37̊C supplied with 5% CO2 and 95% humidity. Transient transfections were performed using Lipofectamine LTX with Plus Reagent (Invitrogen) to NIH3T3 cells, Lipofectamine 2000 (Invitrogen) to talin null cells, and jetPRIME reagent (Polyplus) to MEFs and HEK293T cells, as per the manufacturer's instructions.
(§2) For the construction of mCherry-KANK1, human FL-KANK1 (generous donation from the Bershadsky laboratory) cDNA was tagged in the C-terminal site with pmCherry (Clontech) by restriction digestion. Point mutations (L41E, L43E, F45E and V49E) were introduced in mCherry-KANK1 by site-directed mutagenesis (NEB) using the following oligonucleotides: […]ga[…] and […] for L41E; […]ga[…] and […] for L43E; […]gaa[…] and […] for F45E; […]a[…] and […] for V49E. Generation of GFP–talin1–cBAK and GFP–cBAK was as previously described. G1404L was introduced on GFP–talin1–cBAK by the method above using […]ctt[…] and […]. To generate GFP–talin1 R7DD–cBAK and GFP–talin1 R9DD-cBAK constructs, R7-DD (3555 bp) and R9-DD (2661 bp) were amplified from talin-1 (Mus musculus). Restriction digestion with XhoI and HindIII FastDigest enzymes (Thermo Scientific) was used to linearize GFP–cBAK. DNA assembly was performed to join R7-DD and R9-DD to linearized the GFP–cBAK vector using the NEBuilder HiFi DNA assembly kit (NEB).
(§3) Images of fixed samples in PBS were acquired at room temperature using an Olympus IX83 inverted microscope equipped with a 60×/1.42 PlanApo N oil objective and a QImaging Retiga R6 CCD camera, controlled by Metamorph software. Samples were illuminated using LEDs (UV/Cyan/Green-Yellow/Red, Lumencor) for fluorescence excitation; a Sedat filter set (DAPI/FITC/TRITC/Cy5, Chroma, 89000) was used.

GFP–talin1–cBAK = assay: Mitochondrial targeting system (MTS): recruitment of mCherry–KANK1 by GFP–talin1–cBAK; format: cell-based; conditions: NIH3T3 fibroblasts and HEK293T cells; fluorescence microscopy colocalization
Source text: To examine the effect of these KANK1 mutations on talin interactions in cells, we next used a mitochondrial targeting system (MTS) which we previously used to screen for defined protein–protein interactions. In this assay, one protein is fused to a small peptide sequence from the pro-apoptotic protein BAK (cBAK) which leads to its insertion into the outer membrane of mitochondria. Proteins that interact with the cBAK-tagged protein will get recruited to mitochondria, and this recruitment can be verified either by visualizing colocalization using fluorescence microscopy (figure 4a) or by purification of mitochondria followed by detection of co-precipitates using biochemistry (figure 4b,c). […] To confirm that the interaction was meditated by the R7 domain, we performed the colocalization assays with truncated talin constructs.
as §1, §2, §3

| Molecule | localization of mCherry–KANK1 to FAs / FA belt [1] | recruitment of mCherry–KANK1 to mitochondria by GFP–talin1–cBAK (GFP–talin1–cBAK) |
| --- | --- | --- |
| KANK1 WT: human FL-KANK1 tagged with pmCherry (protein, UniProt Q14678 1-1352, looked up, full-length mCherry fusion, human FL-KANK1 tagged with pmCherry) MAHTTKVNGSASGKAGDILSGDQDKEQKDPYFVETPYGYQLDLDFLKYVDDIQKGNTIKRLNIQKRRKPSVPCPEPRTTSGQQGIWTSTESLSSSNSDDNKQCPNFLIARSQVTSTPISKPPPPLETSLPFLTIPENRQLPPPSPQLPKHNLHVTKTLMETRRRLEQERATMQMTPGEFRRPRLASFGGMGTTSSLPSFVGSGNHNPAKHQLQNGYQGNGDYGSYAPAAPTTSSMGSSIRHSPLSSGISTPVTNVSPMHLQHIREQMAIALKRLKELEEQVRTIPVLQVKISVLQEEKRQLVSQLKNQRAASQINVCGVRKRSYSAGNASQLEQLSRARRSGGELYIDYEEEEMETVEQSTQRIKEFRQLTADMQALEQKIQDSSCEASSELRENGECRSVAVGAEENMNDIVVYHRGSRSCKDAAVGTLVEMRNCGVSVTEAMLGVMTEADKEIELQQQTIESLKEKIYRLEVQLRETTHDREMTKLKQELQAAGSRKKVDKATMAQPLVFSKVVEAVVQTRDQMVGSHMDLVDTCVGTSVETNSVGISCQPECKNKVVGPELPMNWWIVKERVEMHDRCAGRSVEMCDKSVSVEVSVCETGSNTEESVNDLTLLKTNLNLKEVRSIGCGDCSVDVTVCSPKECASRGVNTEAVSQVEAAVMAVPRTADQDTSTDLEQVHQFTNTETATLIESCTNTCLSTLDKQTSTQTVETRTVAVGEGRVKDINSSTKTRSIGVGTLLSGHSGFDRPSAVKTKESGVGQININDNYLVGLKMRTIACGPPQLTVGLTASRRSVGVGDDPVGESLENPQPQAPLGMMTGLDHYIERIQKLLAEQQTLLAENYSELAEAFGEPHSQMGSLNSQLISTLSSINSVMKSASTEELRNPDFQKTSLGKITGNYLGYTCKCGGLQSGSPLSSQTSQPEQEVGTSEGKPISSLDAFPTQEGTLSPVNLTDDQIAAGLYACTNNESTLKSIMKKKDGNKDSNGAKKNLQFVGINGGYETTSSDDSSSDESSSSESDDECDVIEYPLEEEEEEEDEDTRGMAEGHHAVNIEGLKSARVEDEMQVQECEPEKVEIRERYELSEKMLSACNLLKNTINDPKALTSKDMRFCLNTLQHEWFRVSSQKSAIPAMVGDYIAAFEAISPDVLRYVINLADGNGNTALHYSVSHSNFEIVKLLLDADVCNVDHQNKAGYTPIMLAALAAVEAEKDMRIVEELFGCGDVNAKASQAGQTALMLAVSHGRIDMVKGLLACGADVNIQDDEGSTALMCASEHGHVEIVKLLLAQPGCNGHLEDNDGSTALSIALEAGHKDIAVLLYAHVNFAKAQSPGTPRLGRKTSPGPTHRGSFD | readily localized to FAs, and predominantly to the typical ‘belt-like’ structure | readily recruits |
| KANK1 V49E: mCherry-KANK1 with point mutation V49E (protein, left off: mCherry, C-terminal, kept) MAHTTKVNGSASGKAGDILSGDQDKEQKDPYFVETPYGYQLDLDFLKYEDDIQKGNTIKRLNIQKRRKPSVPCPEPRTTSGQQGIWTSTESLSSSNSDDNKQCPNFLIARSQVTSTPISKPPPPLETSLPFLTIPENRQLPPPSPQLPKHNLHVTKTLMETRRRLEQERATMQMTPGEFRRPRLASFGGMGTTSSLPSFVGSGNHNPAKHQLQNGYQGNGDYGSYAPAAPTTSSMGSSIRHSPLSSGISTPVTNVSPMHLQHIREQMAIALKRLKELEEQVRTIPVLQVKISVLQEEKRQLVSQLKNQRAASQINVCGVRKRSYSAGNASQLEQLSRARRSGGELYIDYEEEEMETVEQSTQRIKEFRQLTADMQALEQKIQDSSCEASSELRENGECRSVAVGAEENMNDIVVYHRGSRSCKDAAVGTLVEMRNCGVSVTEAMLGVMTEADKEIELQQQTIESLKEKIYRLEVQLRETTHDREMTKLKQELQAAGSRKKVDKATMAQPLVFSKVVEAVVQTRDQMVGSHMDLVDTCVGTSVETNSVGISCQPECKNKVVGPELPMNWWIVKERVEMHDRCAGRSVEMCDKSVSVEVSVCETGSNTEESVNDLTLLKTNLNLKEVRSIGCGDCSVDVTVCSPKECASRGVNTEAVSQVEAAVMAVPRTADQDTSTDLEQVHQFTNTETATLIESCTNTCLSTLDKQTSTQTVETRTVAVGEGRVKDINSSTKTRSIGVGTLLSGHSGFDRPSAVKTKESGVGQININDNYLVGLKMRTIACGPPQLTVGLTASRRSVGVGDDPVGESLENPQPQAPLGMMTGLDHYIERIQKLLAEQQTLLAENYSELAEAFGEPHSQMGSLNSQLISTLSSINSVMKSASTEELRNPDFQKTSLGKITGNYLGYTCKCGGLQSGSPLSSQTSQPEQEVGTSEGKPISSLDAFPTQEGTLSPVNLTDDQIAAGLYACTNNESTLKSIMKKKDGNKDSNGAKKNLQFVGINGGYETTSSDDSSSDESSSSESDDECDVIEYPLEEEEEEEDEDTRGMAEGHHAVNIEGLKSARVEDEMQVQECEPEKVEIRERYELSEKMLSACNLLKNTINDPKALTSKDMRFCLNTLQHEWFRVSSQKSAIPAMVGDYIAAFEAISPDVLRYVINLADGNGNTALHYSVSHSNFEIVKLLLDADVCNVDHQNKAGYTPIMLAALAAVEAEKDMRIVEELFGCGDVNAKASQAGQTALMLAVSHGRIDMVKGLLACGADVNIQDDEGSTALMCASEHGHVEIVKLLLAQPGCNGHLEDNDGSTALSIALEAGHKDIAVLLYAHVNFAKAQSPGTPRLGRKTSPGPTHRGSFD | abolished localization to FAs and the FA belt | abolishes GFP–talin–cBAK mediated recruitment |
